Results: patent US20030108957A1
“And” between values parts separate entries of the source, which are not always exact repeats. Identical values can stand only once.

T1: GroES, P0A6F9
T1 chain: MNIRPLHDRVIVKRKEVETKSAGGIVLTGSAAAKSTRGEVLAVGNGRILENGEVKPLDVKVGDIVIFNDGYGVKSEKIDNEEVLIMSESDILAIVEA

T2: GrpE, P09372
T2 chain: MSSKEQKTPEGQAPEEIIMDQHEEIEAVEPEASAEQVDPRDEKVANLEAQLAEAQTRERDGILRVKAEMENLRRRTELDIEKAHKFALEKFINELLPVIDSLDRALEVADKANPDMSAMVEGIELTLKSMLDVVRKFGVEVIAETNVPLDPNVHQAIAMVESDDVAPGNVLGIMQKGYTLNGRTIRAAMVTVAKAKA


Columns and labels:
[1] = molecular target: E. coli DnaK (E. coli), A1A766
GroEL (E. coli), P0A6F5 [2] = molecular target: GroEL (E. coli), P0A6F5
[3] = molecular target: E. coli DnaK (E. coli), A1A766; assay: cell-based or functional assay
[4] = molecular target: E. coli DnaK (E. coli), A1A766; remark: listed apart in the source
[5] = molecular target: E. coli DnaK (E. coli), A1A766; remark: listed apart in the source
GroEL (E. coli), P0A6F5 [6] = molecular target: GroEL (E. coli), P0A6F5; remark: listed apart in the source
GroES, P0A6F9 = molecular target: T1, GroES, P0A6F9
GrpE, P09372 = molecular target: T2, GrpE, P09372
[7] = molecular target: E. coli DnaK aa583-615 (hinge region between C-terminal helices D and E) (E. coli)
[8] = molecular target: E. coli DnaK aa588-615 (E. coli)
[9] = molecular target: Hsp60 (the human equivalent of GroEL) (human), P10809; assay: fluorescence polarization, 1 nM labeled peptide, 2 µM protein; blank about 62
Sequence of Hsp60 (the human equivalent of GroEL) (human), P10809 (P10809 27-573 limits assumed): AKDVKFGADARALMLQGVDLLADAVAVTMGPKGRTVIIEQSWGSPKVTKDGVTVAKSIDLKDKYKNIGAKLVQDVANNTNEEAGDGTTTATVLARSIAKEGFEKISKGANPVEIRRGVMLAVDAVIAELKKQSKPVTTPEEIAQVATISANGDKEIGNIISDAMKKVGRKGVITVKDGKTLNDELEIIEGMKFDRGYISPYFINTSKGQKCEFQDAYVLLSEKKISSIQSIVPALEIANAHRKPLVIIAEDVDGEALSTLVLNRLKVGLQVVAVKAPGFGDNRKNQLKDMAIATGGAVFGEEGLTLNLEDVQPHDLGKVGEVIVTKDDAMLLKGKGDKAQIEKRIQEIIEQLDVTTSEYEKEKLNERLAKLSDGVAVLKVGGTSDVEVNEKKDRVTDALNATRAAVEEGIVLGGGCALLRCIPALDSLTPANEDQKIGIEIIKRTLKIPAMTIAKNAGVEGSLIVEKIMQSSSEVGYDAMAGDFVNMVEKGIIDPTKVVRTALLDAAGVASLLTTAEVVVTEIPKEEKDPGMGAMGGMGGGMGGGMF

[10] = molecular target: Hsp60 (the human equivalent of GroEL) (human), P10809; assay: fluorescence polarization, 1 nM labeled peptide, 4 µM protein; blank about 62
[11] = molecular target: guanyl-nucleotide binding protein Ras (21 kDa); assay: fluorescence polarization, 1 nM labeled peptide, 4 µM Ras; background without protein 46±7

Binder | Millipolarization after preincubation (millipolarization) [1] | Millipolarization after preincubation (millipolarization) (GroEL (E. coli), P0A6F5 [2]) | ATPase activity of recombinant DnaK (EnzChek assay, UV absorbance at 360 nm), 50 molar equivalents of peptide (fraction of the original value) [3] | Millipolarization (no competing peptide) (millipolarization) [1] | Millipolarization (no competing peptide) (millipolarization) (GroEL (E. coli), P0A6F5 [2]) | Kd [4] | millipolarization over the background [4] | minipolarization value (millipolarization) [5] | minipolarization value (millipolarization) (GroEL (E. coli), P0A6F5 [6]) | minipolarization value (millipolarization) (GroES, P0A6F9) | minipolarization value (millipolarization) (GrpE, P09372) | Kd [7] | Kd [8] | minipolarization value (millipolarization) [9] | minipolarization value (millipolarization) [10] | millipolarization units (millipolarization units) [11]
VDKGSYLPRPTPPRPIYNRN (modifications not checked) [pyrrhocoricin (unlabeled, all L-amino acids, without sugar)] | 110 and 84 | 62 | < 0.5 | – | – | – | – | – | – | – | – | – | – | – | – | –
KVDKGSYLPRPTPPRPIYNRN (modifications not checked) [fluorescein-K-pyrrhocoricin] | – | – | – | 126 | 70 | 1100 nM | 50% | 100 and 95 | > 100 and 85 | < 62 | < 62 | 50.8 µM | 93 µM | 62 | 90 | 52
